Data taken from patent US20260374828 (published 2026).
Where no end group is shown, it is not given here. [ ]: non-standard residue; d: D form.

B1: Peptide 1-13 (peptide)
chain: Ac-DELEPLTGFRR[dR][dR]-NH2
SMILES: CC(=O)N[C@@H](CC(=O)O)C(=O)N[C@@H](CCC(=O)O)C(=O)N[C@@H](CC(C)C)C(=O)N[C@@H](CCC(=O)O)C(=O)N1CCC[C@H]1C(=O)N[C@@H](CC(C)C)C(=O)N[C@H](C(=O)NCC(=O)N[C@@H](Cc1ccccc1)C(=O)N[C@@H](CCCNC(=N)N)C(=O)N[C@@H](CCCNC(=N)N)C(=O)N[C@H](CCCNC(=N)N)C(=O)N[C@H](CCCNC(=N)N)C(N)=O)[C@@H](C)O
B2: Peptide 1-12 (peptide)
chain: Ac-DELEPLTGF[dR][dR]RR-NH2
SMILES: CC(=O)N[C@@H](CC(=O)O)C(=O)N[C@@H](CCC(=O)O)C(=O)N[C@@H](CC(C)C)C(=O)N[C@@H](CCC(=O)O)C(=O)N1CCC[C@H]1C(=O)N[C@@H](CC(C)C)C(=O)N[C@H](C(=O)NCC(=O)N[C@@H](Cc1ccccc1)C(=O)N[C@H](CCCNC(=N)N)C(=O)N[C@H](CCCNC(=N)N)C(=O)N[C@@H](CCCNC(=N)N)C(=O)N[C@@H](CCCNC(=N)N)C(N)=O)[C@@H](C)O

What follows are binders tested against Keap1 Kelch domain (UniProt Q14145) (assay: other TR-FRET).
Keap1 Kelch domain, sequence (Q14145 whole entry, the tested form may be a part): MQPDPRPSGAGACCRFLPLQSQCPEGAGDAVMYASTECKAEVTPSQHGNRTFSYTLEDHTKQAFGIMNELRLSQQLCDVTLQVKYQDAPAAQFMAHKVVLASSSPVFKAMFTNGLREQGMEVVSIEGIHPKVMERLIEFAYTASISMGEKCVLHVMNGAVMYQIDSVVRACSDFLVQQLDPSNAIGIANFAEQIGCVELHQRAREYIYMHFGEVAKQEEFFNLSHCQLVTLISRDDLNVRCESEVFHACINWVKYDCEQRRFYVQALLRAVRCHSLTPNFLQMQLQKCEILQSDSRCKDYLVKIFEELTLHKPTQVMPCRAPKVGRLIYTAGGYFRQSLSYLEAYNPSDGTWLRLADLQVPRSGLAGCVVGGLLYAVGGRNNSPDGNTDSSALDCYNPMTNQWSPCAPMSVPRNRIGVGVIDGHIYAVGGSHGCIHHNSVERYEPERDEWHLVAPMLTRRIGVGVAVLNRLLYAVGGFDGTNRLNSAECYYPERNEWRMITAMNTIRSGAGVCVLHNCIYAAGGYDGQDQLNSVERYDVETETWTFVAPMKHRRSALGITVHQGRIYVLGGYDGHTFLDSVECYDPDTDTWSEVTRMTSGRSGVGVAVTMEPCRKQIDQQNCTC

First: B1
Second: B2
The IC50 of the first is 1.5-fold lower: 8.8 nM for the first, 13.3 nM for the second. The first is the more potent here.

RRDELEPLTGFRR (also: polynorbornene brush polymer conjugate, multivalent) [PLP 1-3] and DELEPLTGF[dR][dR]RR (also: polynorbornene brush polymer conjugate, multivalent) [PLP 1-12] are within 1.5-fold of each other in IC50: 0.12 nM for the first, 0.17 nM for the second.
